Data taken from EP1508806A1.
One block for each substance: values may come before it.

Columns and labels:
[1] = target: regulatory p85α subunit of bovine PI 3-kinase (recombinant, GST part removed with thrombin) (bovine) (UniProt P23727); experiment: SPR competition: soluble peptide against the same peptide immobilised, 100 nM p85α
[2] = target: rIRS-1 449-664 GST fusion protein, phosphorylated in vitro by PKC from rat brain (rat) (UniProt P35570); experiment: cell-based or functional assay
[3] = target: GST fusion protein containing amino acids 449-664 of rat IRS-1 (rIRS-1 449-664), not phosphorylated (rat) (UniProt P35570); experiment: cell-based or functional assay
[4] = target: rIRS-1 449-664 S570A GST fusion protein, pretreated with PKC-ζ (rat) (UniProt P35570); experiment: cell-based or functional assay
[5] = target: rIRS-1 449-664 GST fusion protein, phosphorylated in vitro by PKC-ζ (rat) (UniProt P35570); experiment: cell-based or functional assay
[6] = target: rIRS-1 449-664 S612A GST fusion protein, pretreated with PKC-ζ (rat) (UniProt P35570); experiment: cell-based or functional assay
[7] = target: rIRS-1 449-664 GST fusion protein, pretreated with PKC from rat brain and then tyrosine phosphorylated by insulin receptor (rat) (UniProt P35570); experiment: GST pull-down, anti-p85α immunoblot quantified; against the insulin-stimulated value without PKC-rb set as 100%
[8] = target: rIRS-1 449-664 S612A GST fusion protein, pretreated with PKC-ζ and then tyrosine phosphorylated by insulin receptor (rat) (UniProt P35570); experiment: GST pull-down, anti-p85α immunoblot quantified; relative to the insulin-stimulated control value set as 100%
[9] = target: rIRS-1 449-664 S570A GST fusion protein, pretreated with PKC-ζ and then tyrosine phosphorylated by insulin receptor (rat) (UniProt P35570); experiment: as above
[10] = target: rIRS-1 449-664 GST fusion protein, pretreated with PKC-ζ and then tyrosine phosphorylated by insulin receptor (rat) (UniProt P35570); experiment: GST pull-down, anti-p85α immunoblot quantified; against the insulin-stimulated value without PKC-ζ set as 100%

Sequence of UniProt P23727 (P23727 whole entry, the tested form may be a part): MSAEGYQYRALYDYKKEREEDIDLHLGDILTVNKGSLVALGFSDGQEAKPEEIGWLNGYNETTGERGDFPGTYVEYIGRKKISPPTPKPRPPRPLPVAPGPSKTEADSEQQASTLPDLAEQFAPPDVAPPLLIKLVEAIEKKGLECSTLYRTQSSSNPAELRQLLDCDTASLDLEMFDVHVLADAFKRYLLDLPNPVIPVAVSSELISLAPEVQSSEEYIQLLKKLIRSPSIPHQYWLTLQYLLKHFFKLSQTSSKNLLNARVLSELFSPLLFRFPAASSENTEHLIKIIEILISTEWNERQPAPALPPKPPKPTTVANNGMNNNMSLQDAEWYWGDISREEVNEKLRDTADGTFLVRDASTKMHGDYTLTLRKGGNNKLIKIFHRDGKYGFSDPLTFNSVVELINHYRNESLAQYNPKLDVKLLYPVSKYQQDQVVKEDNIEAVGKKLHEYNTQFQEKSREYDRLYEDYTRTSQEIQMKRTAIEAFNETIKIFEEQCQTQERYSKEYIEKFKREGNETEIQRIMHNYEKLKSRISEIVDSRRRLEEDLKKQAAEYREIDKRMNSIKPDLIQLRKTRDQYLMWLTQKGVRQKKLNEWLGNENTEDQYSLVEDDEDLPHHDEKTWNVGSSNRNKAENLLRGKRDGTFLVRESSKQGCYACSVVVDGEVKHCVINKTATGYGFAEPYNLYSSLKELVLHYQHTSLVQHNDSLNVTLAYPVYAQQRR

peptide concentration for complete inhibition [1]: 10 µM
Substance: IRS-1 peptide pY608, DDGpYMPMSPGV (amino acids 605 to 615 of rat IRS-1, phosphotyrosine 608)

peptide concentration for complete inhibition [1]: 10 µM
Substance: IRS-1 peptide pY608-pS612, DDGpYMPMpSPGV (amino acids 605 to 615 of rat IRS-1, phosphotyrosine 608 and phosphoserine 612)

reduction of insulin-stimulated Tyr-phosphorylation of rIRS-1^449-664 after PKC-rb pretreatment [2]: 27%
insulin-stimulated tyrosine phosphorylation of rIRS-1^449-664 (anti-phosphotyrosine immunoblot) [3]: 8.8 fold
reduction of tyrosine phosphorylation by IR after PKC-ζ pretreatment [4]: 30 to 40%
inhibition of tyrosine phosphorylation of rIRS-1^449-664 after PKC-ζ pretreatment [5]: 46%
reduction of tyrosine phosphorylation by IR after PKC-ζ pretreatment [5]: 30 to 40%
reduction of tyrosine phosphorylation by IR after PKC-ζ pretreatment [6]: 30 to 40%
Substance: insulin receptor, WGA-purified from rat liver, insulin-stimulated and autophosphorylated (from UniProt P15127 27-1383)

percent inhibition of the association of p85α [7]: 49%
p85α binding, percent of control [8]: 28%
p85α binding, percent of control [9]: 43%
percent inhibition of p85α binding [10]: 81%
Substance: regulatory p85α subunit of bovine PI 3-kinase (recombinant, GST part removed with thrombin) (from UniProt P23727 1-724)
